Assay [1] deals with T1, 人CD47抗原 (recombinant human CD47, 北京义翘神州生物技术有限公司, 货号12283-HCCH) (human, UniProt Q08722 19-139).
T1 construct: The catalogue number is printed only in 6.1 and 6.2; the construct is not described; also called 重组人CD47; human CD47 antigen
The assay can be described thus: ELISA, coated human CD47 (0.2 μg/ml). (In general: An ELISA detects its analyte on a solid surface through an enzyme-linked reagent.)

Assay [2] addresses T2, human CD47 on cells (Raji-luc, CCRF-CEM, Jurkat, CHO/K1-hCD47) (human, UniProt Q08722 19-323).
T2 construct: whole, on cells; also called 细胞表面的CD47
The assay can be described thus: flow cytometry on CCRF-CEM cells. On the technique in general: A flow cytometer gives signals particle by particle.

The target of assay [3] is T1, 人CD47抗原 (recombinant human CD47, …). Description: blocking ELISA on coated human CD47 (2.0 μg/ml); competitor biotin-labelled human SIRPα (0.2 μg/ml).
Assay [4] has as its target T3, 重组人CD47蛋白(His-tag) (Acro Biosystems, 货号CD-H5227) (human, UniProt Q08722 19-139).
T3 construct: Analyte (mobile phase) in the Biacore T200 measurements of 2.5 and 6.6; also called recombinant human CD47 protein (His-tag); not shown: His tag
The assay can be described thus: Biacore T200 (called BLI in the filing), method as in example 2.5. A general note: Surface plasmon resonance follows binding to a sensor surface in real time, without labels.

Assay [5] has as its target T2, human CD47 on cells (Raji-luc, …). Description: flow cytometry on CHO/K1-hCD47 cells.
Assay [6] has the same target. The assay can be described thus: flow cytometry on Raji-luc and Jurkat cells; against control antibody AB12W2.

As usually defined, the EC50 is the concentration that produces a half-maximal response.

T1 sequence (Q08722 19-139 limits assumed): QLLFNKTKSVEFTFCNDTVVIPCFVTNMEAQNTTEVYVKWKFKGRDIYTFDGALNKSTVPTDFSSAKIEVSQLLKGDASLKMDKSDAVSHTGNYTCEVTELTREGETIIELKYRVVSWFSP
T2 sequence (Q08722 19-323): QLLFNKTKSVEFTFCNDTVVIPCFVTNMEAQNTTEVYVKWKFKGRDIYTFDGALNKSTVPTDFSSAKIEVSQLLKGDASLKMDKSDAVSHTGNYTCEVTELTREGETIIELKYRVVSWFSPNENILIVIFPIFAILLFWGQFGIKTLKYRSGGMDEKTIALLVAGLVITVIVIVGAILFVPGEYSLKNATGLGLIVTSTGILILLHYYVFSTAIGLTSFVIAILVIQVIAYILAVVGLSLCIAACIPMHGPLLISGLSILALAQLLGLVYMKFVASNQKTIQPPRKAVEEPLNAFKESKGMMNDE
T3 sequence (Q08722 19-139 limits assumed): as the sequence (Q08722 19-139 limits assumed) above

B1: AB12W2 (antibody, V domains shown)
VH: QMQLVQSGAEVKKTGSSVKVSCKASGFNIKDYYLHWVRQAPGQALEWMGWIDPDQGDTEYAQKFQDRVTITRDRSMSTAYMELSSLRSEDTAMYYCNAAYGSSSYPMDYWGQGTTVTV
VL: NIQMTQSPSAMSASVGDRVTITCKASQDIHRYLSWFQQKPGKVPKHLIYRANRLVSGVPSRFSGSGSGTEFTLTISSLQPEDFATYYCLQYDEFPYTFGGGTKVEIK
notes: Humanized anti-human CD47 control antibody with the variable regions of Celgene's CC-90002 (per CN104271757B); it was detected with anti-human IgG; also called CC-90002 (source of the variable regions); 对照抗体AB12W2
As for B1, the EC50 is 0.0092 µg/mL in assay [1], 0.157 µg/mL in assay [2] and 1.02 µg/mL in assay [3].

B2: AB12W4 (antibody, human IgG4 S228P, kappa, V domains shown)
VH: QIQLVQSGAEVVKPGASVKISCKASGYTFTDYYINWVKQAPGQRLEWIGWIYPGSGNTKHNQKFQGKATLTVDTSSSTAYMELSSLRSEDTAVYFCARRGTYYYGSSSDGFPYWGQGTLVTVSS
VL: QIVLTQSPATMSASPGERVTISCRASSSVYYMYWYQQKPGQSPRPWIYRTSNLATGVPARFSGSGSGTSYSLTISSMEPEDFATYYCQQYHSYPLTFGQGTKLEIKR
notes: Humanized from Mo2A11971 by resurfacing
As to B2, the binding result in assay [4] is “binds”.

B3: AB12W6 (antibody, human IgG4 S228P, kappa)
heavy: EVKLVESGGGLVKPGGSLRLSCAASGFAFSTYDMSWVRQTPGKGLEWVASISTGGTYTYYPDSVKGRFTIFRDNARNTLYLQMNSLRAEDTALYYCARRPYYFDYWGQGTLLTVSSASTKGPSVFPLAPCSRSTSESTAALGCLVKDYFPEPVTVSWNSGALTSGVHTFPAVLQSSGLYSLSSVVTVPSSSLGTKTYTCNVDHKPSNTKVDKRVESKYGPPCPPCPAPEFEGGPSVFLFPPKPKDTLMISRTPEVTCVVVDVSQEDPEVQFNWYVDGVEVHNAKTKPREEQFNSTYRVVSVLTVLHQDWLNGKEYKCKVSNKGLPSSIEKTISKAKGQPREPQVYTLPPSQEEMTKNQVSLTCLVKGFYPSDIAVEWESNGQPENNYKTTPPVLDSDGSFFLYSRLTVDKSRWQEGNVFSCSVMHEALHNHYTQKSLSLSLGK
light: DIKMTQSPSSKSASVGERVTITCQASQDINNYLSWFQQKPGKAPKTLIYRANRLMTGVPSRFSGSGSGQDFSLTISSLQPEDMGIYYCLQFDDFPLTFGQGTKLEIKRTVAAPSVFIFPPSDEQLKSGTASVVCLLNNFYPREAKVQWKVDNALQSGNSQESVTEQDSKDSTYSLSSTLTLSKADYEKHKVYACEVTHQGLSSPVTKSFNRGEC
notes: Humanized from Mo2A21331 by resurfacing
Take B3: the figures for the concentration for a half-maximal effect (EC50) in assay [1], in assay [5] and in assay [3] were 0.0128 µg/mL, 0.217 µg/mL and 1.29 µg/mL, respectively. Further, the “EC50 lower than that of the control antibody AB12W2” value in assay [6] was found to be 50%.

B4: AB12W9 (antibody)
heavy: EVKLVESGGGLVKPGGSLRLSCAASGFAFSTYDMSWVRQTPGKGLEWVASISTGGTYTYYPDSVKGRFTIFRDNARNTLYLQMNSLRAEDTALYYCARRPYYFDYWGQGTLLTVSSASTKGPSVFPLAPSSKSTSGGTAALGCLVKDYFPEPVTVSWNSGALTSGVHTFPAVLQSSGLYSLSSVVTVPSSSLGTQTYICNVNHKPSNTKVDKKVEPKSCDKTHTCPPCPAPELLGGPSVFLFPPKPKDQLMISRTPEVTCVVVDVSHEDPEVKFNWYVDGVEVHNAKTKPREEQYASTYRVVSVLTVLHQDWLNGKEYKCKVSNKALPAPIEKTISKAKGQPREPQVYTLPPSREEMTKNQVSLTCLVKGFYPSDIAVEWESNGQPENNYKTTPPVLDSDGSFFLYSKLTVDKSRWQQGNVFSCSVLHEALHNHYTQKSLSLSPGK
light: DIKMTQSPSSKSASVGERVTITCQASQDINNYLSWFQQKPGKAPKTLIYRANRLMTGVPSRFSGSGSGQDFSLTISSLQPEDMGIYYCLQFDDFPLTFGQGTKLEIKRTVAAPSVFIFPPSDEQLKSGTASVVCLLNNFYPREAKVQWKVDNALQSGNSQESVTEQDSKDSTYSLSSTLTLSKADYEKHKVYACEVTHQGLSSPVTKSFNRGEC
notes: as for B3
With B4, the 50% effective concentration (EC50) was 0.162 µg/mL in assay [2] and 0.252 µg/mL in assay [5].

B5: AB12W3 (antibody, human IgG4 S228P, kappa, V domains shown)
VH: EVQLVQSGAEVVKPGATVKISCKASGYSFTDYFMTWMKQSPGKSLEWIGRINPYNGETFYNQKFQGKATLTVDKSSTTAHMELSSLRSEDSAVYYCGRGGTAGTDYWGQGTLLTVSS
VL: DVLLTQSPLSLPVTLGQPASISCRSSQSVVRSNGNTYLEWYLQKPGQSPRLLINKVSRRFSGVPDRFSGSGSGSEFTLKISRVEAEDVGIYYCFQGSHVPYTFGQGTKLEIKR
notes: Humanized from Mo2A1621 by resurfacing; Expressed in CHO cells
Turning to B5, the values for the concentration giving a half-maximal response (EC50) in assay [1], in assay [5] and in assay [3] were 0.0112 µg/mL, 0.461 µg/mL and 1.17 µg/mL, respectively.

The record behind these values is patent CN114230662A (ANYUAN MEDICINE SCIENCE AND TECH SHANGHAI LIMITED COMPANY, dated 2022).
